Assay results reported in patent US6177557, “High affinity ligands of basic fibroblast growth factor and thrombin” (NeXstar Pharmaceuticals, Inc.).

Legend:
thrombin (alpha) [1] = target: T1, thrombin (alpha) (human, UniProt P00734;P00734 P00734:328-363,P00734:364-622); experiment: filter; 100 mM NaCl, 50 mM Tris pH 7.7, 1 mM DTT, 1 mM MgCl2, 37 C
[2] = target: T2, basic fibroblast growth factor (bFGF) (UniProt P09038 P09038:135-288); experiment: filter; tested for affinity (*), Family 5; no value given; settings: tags: Bachem California, 154 aa, 18 kDa
T2 sequence (P09038 135-288, one chain of several): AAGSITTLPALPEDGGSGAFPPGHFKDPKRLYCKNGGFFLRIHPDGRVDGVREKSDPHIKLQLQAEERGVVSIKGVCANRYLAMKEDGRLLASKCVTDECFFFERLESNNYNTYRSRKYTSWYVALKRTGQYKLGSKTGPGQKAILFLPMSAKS

[3] = target: T2, basic fibroblast growth factor (bFGF); experiment: filter; settings: tags: Bachem California, 18 kDa, 154 aa; 125I-labeled for receptor assays; 6-base G-C stem with blunt end
Protocol: In order to eliminate higher order structures, all DNA solutions were heated to 90° C. in PBS for 2–3 minutes and cooled on ice prior to incubation with protein. Relative binding affinity of individual ligands to bFGF cannot be predicted from sequence information. The majority of sequence isolates were therefore screened for their ability to bind to bFGF by measuring the fraction of radiolabeled DNA bound to nitrocellulose filters following incubation with 1 nM protein. […] Binding of these select isolates was then analyzed in more detail.
Those ligands are M225, M19, m234, M235, and D12 (SEQ ID NOS:359, 353, 387, 360, 332). The minimum size of the region necessary for binding was determined to be 35 bases for M225, M19 and D12 (See Truncations, Table XXI M225t3 (SEQ ID NO:364), M19t2 (SEQ ID NO:365), D12t2 (SEQ ID NO:341)). The ligand with the smallest essential sequence, m234, was isolated from Family 2, Experiment 3 and contains 24 nucleotides (m234t2 (SEQ ID NO:391)). The truncated ligands were tested for binding to bFGF. After truncation, ligands M225t3, M19t2, D12t2, M235t2, and m234t2 have kd values of 0.7 nM, 1 nM, 1 nM, 1 nM, and 6 nM respectively (Table XXII). All five of the truncated molecules lost some of their affinity for bFGF in comparison to the full length ligands. The binding affinity is regained when an additional G-C base pair is added to the blunt end stem of M225t3. This molecule is termed M225t3GC (SEQ ID NO:443). The binding of M225t3GC is 0.2 nM compared to 0.7 nM for M225t3 without the additional base pair (Table XXII).

[4] = target: T3, vascular endothelial growth factor (VEGF) (UniProt P15692-4 P15692-4:27-191); experiment: filter; settings: chain copies: 2; 6-base G-C stem with blunt end
T3 sequence (P15692 other isoform, or with tags, fused parts or gaps): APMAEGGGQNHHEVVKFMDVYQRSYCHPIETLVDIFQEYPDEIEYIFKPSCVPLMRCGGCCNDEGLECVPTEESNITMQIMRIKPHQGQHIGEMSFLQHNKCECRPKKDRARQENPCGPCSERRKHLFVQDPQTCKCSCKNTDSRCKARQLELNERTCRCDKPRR

[5] = target: human chorionic gonadotropin (human, UniProt P01215;P0DN86 P01215:25-116,P0DN86:21-165); experiment: filter; settings: 6-base G-C stem with blunt end
Sequence of human chorionic gonadotropin (P01215 25-116, chain 1 of 2, other chains not shown): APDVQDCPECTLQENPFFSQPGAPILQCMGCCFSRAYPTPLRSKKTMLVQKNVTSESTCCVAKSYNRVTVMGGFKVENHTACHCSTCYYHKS

[6] = target: T2, basic fibroblast growth factor (bFGF); experiment: filter; PEG 3400 conjugate; settings: tags: Bachem California, 18 kDa, 154 aa; 125I-labeled for receptor assays
[7] = target: T2, basic fibroblast growth factor (bFGF); experiment: filter; tested for affinity (*), Family 2; no value given; settings: tags: Bachem California, 154 aa, 18 kDa
thrombin (alpha) [8] = target: T1, thrombin (alpha); experiment: filter; ERL thrombin, 1 mM MgCl2, 37 C
[9] = target: T2, basic fibroblast growth factor (bFGF); experiment: filter; PBS, 0.01% HSA, 1 mM DTT, 37 C; +/-0.1; settings: tags: Bachem California, 18 kDa, 154 aa; 125I-labeled for receptor assays
Protocol: (§1) This affinity screening allowed identification of those ligands with highest affinity for bFGF. Binding of a group of these ligands was analyzed over a range of bFGF concentrations (FIG. 5) and their dissociation constants.(Kd's) were determined as described (Jellinek et al. (1993) Proc. Natl. Acad. Sci. USA 90:11227–11231) (Table IX). RNA concentrations were determined from their absorbance reading at […] (and were typically <100 pM). Binding reactions were done at 37° C. in phosphate buffered saline containing 0.01% human serum albumin and 1 mM DTT.

thrombin (alpha) [10] = target: T1, thrombin (alpha); experiment: filter; curve only in figure
[11] = target: T2, basic fibroblast growth factor (bFGF); experiment: filter; PBS, 0.01% HSA, 1 mM DTT, 37 C; +/-1.1; settings: tags: Bachem California, 18 kDa, 154 aa; 125I-labeled for receptor assays
Protocol: as §1

thrombin (alpha) [12] = target: T1, thrombin (alpha); experiment: filter; curve only in figure; ERL thrombin
[13] = target: T2, basic fibroblast growth factor (bFGF); experiment: filter; PBS, 0.01% HSA, 1 mM DTT, 37 C; +/-0.4; settings: tags: Bachem California, 18 kDa, 154 aa; 125I-labeled for receptor assays
Protocol: as §1

[14] = target: T2, basic fibroblast growth factor (bFGF); experiment: filter; tested for affinity (*), Family 3; no value given; settings: tags: Bachem California, 154 aa, 18 kDa
thrombin (alpha) [15] = target: T1, thrombin (alpha); experiment: filter; 30% binding at 300 nM tracer is not separately tabulated; curve in figure
[16] = target: T2, basic fibroblast growth factor (bFGF); experiment: filter; PBS, 0.01% HSA, 1 mM DTT, 37 C; +/-0.2; settings: tags: Bachem California, 18 kDa, 154 aa; 125I-labeled for receptor assays
Protocol: as §1

[17] = target: T2, basic fibroblast growth factor (bFGF); experiment: competition; displacement from low-affinity receptor on BHK cells; high-affinity receptor >1 uM; settings: tags: Bachem California, 18 kDa, 154 aa; 125I-labeled for receptor assays; label: 32P
Protocol: Additionally, modified RNA ligands 21A (SEQ ID NO:104), 38B (SEQ ID NO:114) and Random RNAs were tested.
Receptor Binding Studies. bFGF was labeled with ^125I by the Iodo-Gen (Pierce) procedure as described by Moscatelli (1987) J. Cell. Physiol. 131:123. […] The amount of ^125I-bFGF bound to the low- and the high-affinity receptor sites was determined as described by Moscatelli (1987) supra.

thrombin (alpha) [18] = target: T1, thrombin (alpha); experiment: filter; specificity, data not shown
[19] = target: T3, vascular endothelial growth factor …; experiment: filter; specificity, data not shown; settings: chain copies: 2; label: 32P
antithrombin III = antithrombin III (UniProt P01008 P01008:33-464); experiment: filter; specificity, data not shown; settings: label: 32P
Sequence of antithrombin III (P01008 33-464, one chain of several): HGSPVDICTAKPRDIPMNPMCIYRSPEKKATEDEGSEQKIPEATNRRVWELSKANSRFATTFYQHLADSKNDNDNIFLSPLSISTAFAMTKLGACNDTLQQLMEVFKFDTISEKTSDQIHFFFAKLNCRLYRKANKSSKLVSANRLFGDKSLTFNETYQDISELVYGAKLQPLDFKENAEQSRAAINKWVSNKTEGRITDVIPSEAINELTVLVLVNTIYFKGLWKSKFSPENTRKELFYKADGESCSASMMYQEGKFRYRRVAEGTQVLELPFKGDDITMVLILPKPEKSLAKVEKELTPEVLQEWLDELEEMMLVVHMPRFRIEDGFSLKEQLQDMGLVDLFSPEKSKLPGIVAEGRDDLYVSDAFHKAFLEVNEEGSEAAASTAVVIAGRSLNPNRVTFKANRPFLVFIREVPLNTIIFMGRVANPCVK

acidic FGF = acidic FGF (UniProt P05230 P05230:16-155); experiment: filter; specificity, data not shown; settings: label: 32P
Sequence of acidic FGF (P05230 16-155, one chain of several): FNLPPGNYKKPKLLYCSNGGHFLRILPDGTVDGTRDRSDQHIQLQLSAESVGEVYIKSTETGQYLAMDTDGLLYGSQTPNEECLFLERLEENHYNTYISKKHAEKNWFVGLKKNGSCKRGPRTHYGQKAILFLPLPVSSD

B1: thrombin Class I RNA 16 (ssRNA)
RNA: AGAUGCCUGUCGAGCAUGCUGCAUCCGGAUCGAAGUUAGUAGGCCGAGGUGGUAGCUAAACAGCUUUGUCGACGGG
**Q.** With B1 as the binder, how does the Kd (thrombin (alpha) [1]) read?
**A.** Its Kd is roughly 30 nM.

B2: d9 (ssDNA)
DNA: ATCCGCCTGATTAGCGATACTCGAAGAGTAGGAGGCGATCCGCTCCGTATCAGGTCACATAGGACTTGAGCAAAATCACCTGCAGGGG
**Q.** Does B2 bind [2]?
**A.** Result: binds

**Q.** GCGGGGCTACGTACCGGGGCTTTGTAAAACCCCGC (ssDNA) [M225t3] was tested. Which Kd [3] did it give?
**A.** Its Kd is 0.7 nM.

**Q.** What about the Kd [4] of the same binder?
**A.** Its Kd is greater than 200 nM.

**Q.** What about the Kd [5] of the same binder?
**A.** The Kd was greater than 200 nM.

**Q.** How did the Kd [6] turn out when GCGGGGCTACGTACCGGGGCTTTGTAAAACCCCGC (ssDNA, PEG 3400 on 3' amino linker) [PEG-M225t3] was run?
**A.** Its Kd is 1 nM.

B3: thrombin Class II RNA 27 (ssRNA)
RNA: AGAUGCCUGUCGAGCAUGCUGGUGCGGCUUUGGGCGCCGUGCUUGACGUAGCUAAACAGCUUUGUCGACGGG
**Q.** For B3, which Kd (thrombin (alpha) [1]) is on record?
**A.** The Kd was roughly 60 nM.

B4: d1 (ssDNA)
DNA: ATCCGCCTGATTAGCGATACTACACCCAACCCCCTAAGATTTTAGAGCAACTCGGCGCAACACTTGAGCAAAATCACCTGCAGGGG
**Q.** Does B4 bind [2]?
**A.** Result: binds

B5: d44 (ssDNA)
DNA: ATCCGCCTGATTAGCGATACTGACCACGACTGATGCGTCGCCTCCCGATAGGCAGTTACCCACTTGAGCAAAATCACCTGCAGGGG
**Q.** Does B5 bind [7]?
**A.** Result: binds

**Q.** How did the Kd (thrombin (alpha) [8]) turn out when GGTTGGTGTGGTTGG (ssDNA) [G15D] was run?
**A.** Its Kd is roughly 200 nM.

B6: 2'-NH2 21A (ssRNA)
RNA: GGGAGACAAGAAUAACGCUCAAGUAGACUAAUGUGUGGAAGACAGCGGGUGGUUCGACAGGAGGCUCACAACAGGC
modifications: 2'-NH2 pyrimidines
**Q.** Which Kd [9] does the source give for B6 here?
**A.** The Kd was 1.3 nM.

B7: thrombin Class I RNA 6 (ssRNA)
RNA: AGAUGCCUGUCGAGCAUGCUGAGGAUCGAAGUUAGUAGGCUUUGUGUGCUCGUAGCUAAACAGCUUUGUCGACGGG
**Q.** Does B7 bind (thrombin (alpha) [10])?
**A.** Result: binds

B8: 2'-NH2 48B (ssRNA)
RNA: GGGAGGACGAUGCGGCAGGAUAGGAUGGGGUCGGAACCGUGUAUCAUAACGAGUCAUCUCCUGGUCAGACGACUCGCCCGA
modifications: 2'-NH2 pyrimidines
**Q.** Which Kd [11] does the source give for B8 here?
**A.** The Kd was 6.7 nM.

**Q.** Does CCGGAUCGAAGUUAGUAGGCCGAG (ssRNA) [24R (Class I clone 16 hairpin)] bind (thrombin (alpha) [12])?
**A.** Result: binds

B9: 2'-NH2 34B (ssRNA)
RNA: GGGAGGACGAUGCGGAACGGGAGGUACGAGAGCGGGAGCGCAUAAAUAGGAAACUCCUUGCACGUCAGACGACUCGCCCGA
modifications: 2'-NH2 pyrimidines
**Q.** Which Kd [13] does the source give for B9 here?
**A.** Its Kd is 2 nM.

B10: m219 (ssDNA)
DNA: GGGAGGACGATGCGGGCAGCGACCGCGGTACAAGGCATAGGGTACAGACGACGACGGGGA
**Q.** Does B10 bind [14]?
**A.** Result: binds

B11: thrombin Class I RNA 18 (ssRNA)
RNA: AGAUGCCUGUCGAGCAUGCUGAUUGUUGCGGAUCGAAGUGAGUAGGCGCUAGUAGCUAAACAGCUUUGUCGACGGG
**Q.** Does B11 bind (thrombin (alpha) [10])?
**A.** Result: binds

B12: d46 (ssDNA)
DNA: ATCCGCCTGATTAGCGATACTAACACGGTCTGCTGCGACCCCTCGTACTAACGGTACCAGTACTTGAGCAAAATCACCTGCAGGGG
**Q.** Does B12 bind [7]?
**A.** Result: binds

**Q.** Does GAGCAUGCUGGUGCGGCUUUGGGCGCCGUGCUU (ssRNA) [33R (Class II clone 27 hairpin)] bind (thrombin (alpha) [15])?
**A.** Result: binds

B13: 2'-NH2 59A (ssRNA)
RNA: GGGAGACAAGAAUAACGCUCAAUGUGUGGAAGGGUACCUGAGUGGGGAUGGGUUCGACAGGAGGCUCACAACAGGC
modifications: 2'-NH2 pyrimidines
**Q.** B13 was tested. Which Kd [16] did it give?
**A.** Its Kd is 1.2 nM.

B14: 12A (ssRNA)
RNA: GGGAGCUCAGAAUAAACGCUCAAGGGGCAACGCUACAGACAAGUGCACCCAACUUCGACAUGAGGCCCGGAUCCGGC
**Q.** Which IC50 [17] does the source give for B14 here?
**A.** Its IC50 is greater than 100 nM.

**Q.** And the Kd (thrombin (alpha) [18])?
**A.** The Kd was greater than 300 nM.

**Q.** What about the Kd [19] of the same binder?
**A.** Its Kd is greater than 300 nM.

**Q.** And the Kd (antithrombin III)?
**A.** Its Kd is greater than 300 nM.

**Q.** And the Kd (acidic FGF)?
**A.** The Kd was greater than 300 nM.
